Consider one molecule from patent publication US20190309069A1 (SHANGHAI HENGRUI PHARMACEUTICAL, published 2019).

The target of one assay is T1, cynomolgus PD-1Fc (cynomolgus, UniProt B0LAJ3 25-170, Probably biotinylated for capture on avidin, as the human PD-1 FC was in this ELISA. Fused to an Fc that is not given.).
T1 construct: Source and construct of the cynomolgus PD-1 Fc fusion are not described; also called cyno PD-1; not shown: Fc part of the cynomolgus PD-1Fc fusion, and any linker
The assay can be described thus: ELISA, cyno PD-1Fc. In general terms: An ELISA detects its analyte on a solid surface through an enzyme-linked reagent.

The target in assay [1] is T2, human ICOS/Fc (Beijing Sino Biological Inc.) (human, UniProt Q9Y6W8 21-141, limits assumed).
T2 construct: Bought reagent; not shown: Fc part
T2 sequence (looked up): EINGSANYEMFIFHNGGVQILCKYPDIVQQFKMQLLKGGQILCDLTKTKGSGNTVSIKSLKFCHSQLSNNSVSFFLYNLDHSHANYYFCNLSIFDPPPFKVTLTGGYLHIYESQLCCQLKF
As to the kind of experiment: ELISA, protein coated at 1 µg/ml. The method, then: (§1) To detect the specific binding activity of PD-1 antibody to other proteins of the PD-1 family, human CTLA4 and human CD28 were used for binding assays. Meanwhile, the PD-1 of mice was also used for binding assays so as to determine the diversity of PD-1 antibody for different species other than human/monkey.
(§2) Selectively binding proteins: human PD-1, human ICOS, human CTLA4, human CD28 and mouse PD-1, (Beijing Sino Biological Inc.), were respectively diluted to 1 μg/ml with PBS buffer, pipetted into a 96-well plate at 100 μl/well and standed for 16 h-20 h at 4° C. The 96-well plate was washed once with PBST (PH7.4 PBS, containing 0.05% tweeen20) after PBS buffer was removed, then the plate was incubated and blocked for 1 h at room temperature with 120 μl/well PBST/1% milk. After removal of the blocking solution, the plate was washed with PBST buffer for 3 times, followed by addition of the test PD-1 antibody, and incubated for 1.5 h at room temperature. After removal of the reaction system, the plate was washed for 3 times with PBST, followed by addition of 100 μl/well HRP-labeled anti-murine secondary antibody (The Jackson Laboratory) which was diluted by PBST/1% milk, and incubated for 1 h at room temperature. The plate was washed for 3 times with PBST, followed by addition of 100 μl/well TMB, and incubated for 5-10 min at room temperature. Then the reaction was terminated with addition of 100 μl/well 1M H₂SO₄. The absorbance value at 450 nm was read on the NOVOStar microplate reader.

The target in assay [2] is T3, human CTLA4 (Beijing Sino Biological Inc.) (human, UniProt P16410 36-162, limits assumed).
T3 construct: Bought reagent
T3 sequence (looked up): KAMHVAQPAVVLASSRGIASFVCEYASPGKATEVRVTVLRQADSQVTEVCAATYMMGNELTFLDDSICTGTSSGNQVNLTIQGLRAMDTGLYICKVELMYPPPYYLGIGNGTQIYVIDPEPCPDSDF
The assay can be described thus: ELISA, protein coated at 1 µg/ml. How it is done: as §1, §2

In assay [3] the target is T4, human CD28 (Beijing Sino Biological Inc.) (human, UniProt P10747 19-152).
T4 construct: Bought reagent
The assay can be described thus: ELISA, protein coated at 1 µg/ml. How it is done:
as §1, §2

In assay [4] the target is T5, mouse PD1-Fc (Beijing Sino Biological Inc.) (mouse, UniProt Q02242 25-167, limits assumed).
T5 construct: Bought reagent; also called murine PD-1; not shown: Fc part
T5 sequence (looked up): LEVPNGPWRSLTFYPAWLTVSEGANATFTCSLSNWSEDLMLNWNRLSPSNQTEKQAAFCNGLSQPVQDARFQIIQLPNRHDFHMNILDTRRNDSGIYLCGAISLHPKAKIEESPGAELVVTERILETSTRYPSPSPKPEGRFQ
As to the kind of experiment: ELISA, protein coated at 1 µg/ml. The method, then:
as §1, §2

For assay [5], the target named is T6, PD-1 His protein (Beijing Sino Biological Inc.) (UniProt Q15116 25-167, limits assumed).
T6 construct: Bought reagent, analyte in the Biacore assay; not shown: His tag
The assay can be described thus: Biacore SPR, antibody coupled to CM5 chip, PD-1 His as analyte, 1:1 model. How it is done:
According to the instruction of a kit provided by Biacore, the test PD-1 antibody of the present invention was covalently linked to CM5 (GE) chip using a standard amino coupling method. Then a series of gradient concentrations of PD-1 His protein (Beijing Sino Biological Inc.), which were diluted in the same buffer, were loaded into each cycle successively. After that, the samples were regenerated with regenerated reagent in the kit. The antigen-antibody binding kinetics was tracked for 3 minutes and the dissociation kinetics was tracked for 10 minutes. The data obtained was analyzed by GE's BIAevaluation software using 1:1 (Langmuir) binding model.
On the technique in general: Surface plasmon resonance follows binding to a sensor surface in real time, without labels.

The target in assay [6] is T7, recombinant PD-1 extracellular domain Fc fusion protein (PD-1 Fc) (human, biotin label (sites not given) in the ELISA binding assay; unlabelled when coated in the ligand blocking assay).
T7 construct: also called human PD-1Fc; human PD-1
As to the kind of experiment: ligand binding blocking ELISA: PD-1-FC coated, competitor biotin-labeled PD-L1. How it is done: In this experiment, a 96-well plate was coated with a PD-1 protein with the extracellular domain fused with FC (PD-1-FC), and incubated with the test PD-1 antibody; later biotin-labeled PD-L1 was added for incubation. After washing the plate, the binding amount of biotin-labeled PD-L1 was detected; the blocking IC₅₀ value of PD-1 antibody for ligand PD-L1 binding was calculated.
PD-1-FC was diluted to 1 μg/ml with PH 9.6 CB buffer (1.59 g Na₂CO₃ and 2.93 g NaHCO₃ were dissolved in 1 L of distilled water), pipetted into a 96-well plate at 100 μl/well and standed for 16 h-20 h at 4° C. The 96-well plate was washed once with PBST (PH7.4 PBS, containing 0.05% tweeen20) after PBS buffer was removed, then the plate was incubated and blocked for 1 h at room temperature with 120 μl/well PBST/1% milk. After removal of the blocking solution, the plate was washed with PBST buffer once, followed by addition of 90 μl of test PD-1 antibody which was diluted to a suitable concentration with sample diluents (PH7.4 PBS containing 5% BSA, 0.05% Tween20), and incubated for 1 h at 4° C. […] The absorbance value at 450 nm was read on the NOVOStar microplate reader; the blocking IC₅₀ value of PD-1 for ligand PD-L1 binding was calculated.

B1: murine monoclonal antibody mAb005 (antibody, V domains shown)
VH: EVMLVESGGGLVKPGGSLKLSCAASGFTFSSYMMSWVRQTPEKRLEWVATISGGGANTYYPDSVKGRFTISRDNAKNTLYLQMSSLRSEDTALYYCARQLYYFDYWGQGTTLTVSS
VL: DIQMTQSPASQSASLGEGVTITCLASQTIGTWLTWYQQKPGKSPQLLIYTATSLADGVPSRFSGSGSGTKFSFKISSLQAEDFVTYYCQQVYSIPWTFGGGTKLEIK
notes: Murine monoclonal antibody from a hybridoma; also called PD-1 antibody mAb005
Turning to B1, the midpoint of the response in the assay with cynomolgus PD-1Fc, the EC50, lay at 0.27 nM. In addition, the binding result in assay [1], in assay [2], in assay [3] and in assay [4] was “no binding” in each case. For the same molecule, the Kd (usually a measure of binding affinity in units of concentration) in assay [5] turned out to be 3.57 nM. The koff (in general, the rate constant with which the complex falls apart) in assay [5] was 0.000377 s⁻¹. For the same molecule, the kon – broadly, a measure of how fast the partners come together – in assay [5] came out at 106000 M⁻¹ s⁻¹. Further, the IC50 – broadly, the concentration that inhibits the measured activity by half – in assay [6] is 1.13 nM.
